Assay results as given in patent publication US9618524B2, “Method, composition, isolation and identification of a plaque particle and related biomarker” (Plaxgen Inc., priority 2012, dated 2017).

How the values were obtained:
Experiment in all cases: Mass spectroscopy proteomics, semi-quantitative binding affinity of serum proteins (plaqueproteome, Table 2)
Conditions in all cases: higher number = stronger affinity
[1] = target: T1, Abeta-42 plaque particles (Homo sapiens, UniProt P05067)
T1 construct: Abeta 1-42
Outline: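 AD patient serum or plasma (50% in PBS) was incubated with Abeta-42 aggregates (30 μg) for 1 h at 37 °C, then stained with Thioflavin S for 30 min. Labeled particles were FACS-sorted, trypsin/Lys-C digested overnight and analyzed by MS/MS. Sequest searched human UniProt; Scaffold/Protein Prophet validated the identifications.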

[2] = tested on: High Density cholesterol (Chl Large) plaque particles; design: species or system human
Outline: (§1)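 Serum or plasma from atherosclerotic subjects, diluted to 50% in PBS, was incubated with cholesterol aggregates (30 μg per 1 mL reaction) at 37° C for 1 hr. Small and large cholesterol plaque particles were sorted by flow cytometry gating, trypsin-digested and analysed by MS/MS against a human UniProt database.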

[3] = tested on: Low density cholesterol (Chl small) plaque particles; design: species or system human
Outline: as §1

[4] = target: T2, alpha-synuclein plaque particles (Homo sapiens, UniProt P37840)
T2 construct: 140 amino acids polypeptide
Outline: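 AD-subject plasma or serum (800 μL of 50%) mixed with 30 μg preformed alpha-synuclein aggregates for 1 h at 37 °C; Thioflavin S-positive particles isolated by flow sorting. After reduction, acrylamide alkylation and overnight tryptic digestion, serum proteins identified by MS/MS with Sequest and Scaffold.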

[5] = tested on: Tau plaque particles; design: species or system human
Outline: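 Serum or plasma proteins captured on Thioflavin S-labelled Tau plaque particles (Tau-74, Tau-275 oligomers preformed in PBS at 37° C for 2 h; 1 h co-incubation at 37° C) were isolated by FACS sorting, then tryptically digested and identified by MS/MS (Sequest, human UniProt, strict trypsin).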

Molecule | Semi-quantitative analysis of proteins binding to different plaque particles: Abeta-42 [1] | Semi-quantitative analysis of proteins binding to different plaque particles: Chl Large [2] | Semi-quantitative analysis of proteins binding to different plaque particles: Chl small [3] | Semi-quantitative analysis of proteins binding to different plaque particles: Synuclein [4] | Semi-quantitative analysis of proteins binding to different plaque particles: Tau [5]
Histidine-rich glycoprotein (protein) VSPTDCSAVEPEAEKALDLINKRRRDGYLFQLLRIADAHLDRVENTTVYYLVLDVQESDCSVLSRKYWNDCEPPDSRRPSEIVIGQCKVIATRHSHESQDLRVIDFNCTTSSVSSALANTKDSPVLIDFFEDTERYRKQANKALEKYKEENDDFASFRVDRIERVARVRGGEGTGYFVDFSVRNCPRHHFPRHPNVFGFCRADLFYDVEALDLESPKNLVINCEVFDPQEHENINGVPPHLGHPFHWGGHERSSTTKPPFKPHGSRDHHHPHKPHEHGPPPPPDERDHSHGPPLPQGPPPLLPMSCSSCQHATFGTNGAQRHSHNNNSSDLHPHKHHSHEQHPHGHHPHAHHPHEHDTHRQHPHGHHPHGHHPHGHHPHGHHPHGHHPHCHDFQDYGPCDPPPHNQGHCCHGHGPPPGHLRRRGPGKGPRPFHCRQIGSVYRLPPLRKGEVLPLPEANFPSFPLPHHKHPLKPDNQPFPQSVSESCPGKFKSGFPQVSMFFTHTFPK | 7 | 10 | 9 | 9 | 12
Beta-2-glycoprotein 1 (protein) GRTCPKPDDLPFSTVVPLKTFYEPGEEITYSCKPGYVSRGGMRKFICPLTGLWPINTLKCTPRVCPFAGILENGAVRYTTFEYPNTISFSCNTGFYLNGADSAKCTEEGKWSPELPVCAPIICPPPSIPTFATLRVYKPSAGNNSLYRDTAVFECLPQHAMFGNDTITCTTHGNWTKLPECREVKCPFPSRPDNGFVNYPAKPTLYYKDKATFGCHDGYSLDGPEEIECTKLGNWSAMPSCKASCKVPVKKATVVYQGERVKIQEKFKNGMLHGDKVSFFCKNKEKKCSYTEDAQCIDGTIEVPKCFKEHSSLAFWKTDASDVKPC | 4 | 6 | 6 | 7 | 5
Inter-alpha-trypsin inhibitor heavy chain H1 (protein) SKSSEKRQAVDTAVDGVFIRSLKVNCKVTSRFAHYVVTSQVVNTANEAREVAFDLEIPKTAFISDFAVTADGNAFIGDIKDKVTAWKQYRKAAISGENAGLVRASGRTMEQFTIHLTVNPQSKVTFQLTYEEVLKRNHMQYEIVIKVKPKQLVHHFEIDVDIFEPQGISKLDAQASFLPKELAAQTIKKSFSGKKGHVLFRPTVSQQQSCPTCSTSLLNGHFKVTYDVSRDKICDLLVANNHFAHFFAPQNLTNMNKNVVFVIDISGSMRGQKVKQTKEALLKILGDMQPGDYFDLVLFGTRVQSWKGSLVQASEANLQAAQDFVRGFSLDEATNLNGGLLRGIEILNQVQESLPELSNHASILIMLTDGDPTEGVTDRSQILKNVRNAIRGRFPLYNLGFGHNVDFNFLEVMSMENNGRAQRIYEDHDATQQLQGFYSQVAKPLLVDVDLQYPQDAVLALTQNHHKQYYEGSEIVVAGRIADNKQSSFKADVQAHGEGQEFSITCLVDEEEMKKLLRERGHMLENHVERLWAYLTIQELLAKRMKVDREERANLSSQALQMSLDYGFVTPLTSMSIRGMADQDGLKPTIDKPSEDSPPLEMLGPRRTFVLSALQPSPTHSSSNTQRLPDRVTGVDTD | 7 | 11 | 7 | 10 | 18
